Read-outs that look alike come from different tables or passages of the source.

For assay [1], the target named is RSV A2 pre-F protein (respiratory syncytial virus (RSV) A2) (UniProt P03420). Description: ELISA, plate-coated RSV A2 pre-F, anti-human IgG Fc-HRP detection. For orientation: ELISA stands for enzyme-linked immunosorbent assay.
For assay [2] the target is unchanged. Description: ELISA, plate-coated RSV A2 pre-F, anti-human IgG Fc-HRP detection (2-fold dilutions from 1 ug/mL).
Assay [3] shares this target. Description: BLI (Octet R8), RSV A2 pre-F captured on HIS1K sensor, antibody in solution. (Biolayer interferometry detects binding as a change in optical thickness at a sensor tip.)
Assay [4] has the same target. Described as above. This is another data set of the same source.

The term EC50 denotes the concentration giving half of the maximal effect. As a reminder, the Kd is the equilibrium constant for the complex coming apart. Lower therefore signals higher affinity. Take MEDI8897 (antibody): the EC50 in assay [1] turned out to be 0.0313 µg/mL; in assay [2], 0.0146 µg/mL. In addition, the Kd is 0.379 nM in assay [3] and 0.122 nM in assay [4].

These data come from patent EP4631974A1.
